Data as given in publication PMC7035113 (Nature, 2020).

T1: SA2-SCC1 complex (SA2 80-1060 in complex with SCC1 281-420) (human | , UniProt Q8N3U4;O60216)
T1 sequence 1: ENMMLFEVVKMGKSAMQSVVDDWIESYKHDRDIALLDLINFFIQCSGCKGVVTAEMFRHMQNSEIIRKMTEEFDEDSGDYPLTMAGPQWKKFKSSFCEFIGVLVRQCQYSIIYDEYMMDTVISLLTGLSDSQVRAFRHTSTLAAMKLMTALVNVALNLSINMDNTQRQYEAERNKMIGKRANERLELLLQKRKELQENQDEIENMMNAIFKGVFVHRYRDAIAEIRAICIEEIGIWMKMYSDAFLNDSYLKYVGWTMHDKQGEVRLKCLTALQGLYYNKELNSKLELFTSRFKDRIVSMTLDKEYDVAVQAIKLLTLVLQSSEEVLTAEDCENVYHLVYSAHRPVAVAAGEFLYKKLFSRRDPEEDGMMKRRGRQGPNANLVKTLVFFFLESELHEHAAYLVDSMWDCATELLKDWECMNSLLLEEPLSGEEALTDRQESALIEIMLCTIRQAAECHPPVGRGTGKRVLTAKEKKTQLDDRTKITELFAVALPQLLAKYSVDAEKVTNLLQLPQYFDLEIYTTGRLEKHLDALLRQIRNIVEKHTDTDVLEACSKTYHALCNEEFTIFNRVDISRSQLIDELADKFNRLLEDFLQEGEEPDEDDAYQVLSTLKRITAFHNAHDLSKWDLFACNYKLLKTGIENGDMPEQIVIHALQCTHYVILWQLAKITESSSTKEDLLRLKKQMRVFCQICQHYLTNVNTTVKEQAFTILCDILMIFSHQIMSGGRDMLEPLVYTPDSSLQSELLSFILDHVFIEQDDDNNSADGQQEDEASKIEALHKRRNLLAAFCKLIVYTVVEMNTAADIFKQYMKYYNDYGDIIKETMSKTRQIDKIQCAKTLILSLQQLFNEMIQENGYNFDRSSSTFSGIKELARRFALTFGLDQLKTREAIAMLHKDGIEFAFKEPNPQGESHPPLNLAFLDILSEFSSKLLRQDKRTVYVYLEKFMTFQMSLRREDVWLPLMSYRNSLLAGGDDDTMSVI
T1 sequence 2: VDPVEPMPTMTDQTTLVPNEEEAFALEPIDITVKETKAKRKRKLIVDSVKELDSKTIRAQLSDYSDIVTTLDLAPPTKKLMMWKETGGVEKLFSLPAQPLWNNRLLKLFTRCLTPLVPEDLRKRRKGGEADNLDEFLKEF

B1: CTCF array peptide Y226F (position 2) (peptide)
peptide: DVSVFDFEEEQ
B2: WAPL array peptide from residue 450 (position 8) (peptide)
peptide: KIKYFGFDDLS
B3: SYCP1 array peptide from residue 882 (position 15) (peptide)
peptide: RKMAFEFDINS
B4: WAPL array peptide from residue 425 (position 7) (peptide)
peptide: KLEFFGFEDHE
B5: yeast WAPL array peptide from residue 108 (position 10) (peptide)
peptide: KLSAFNFLDGS
B6: SYCP3 array peptide from residue 21 (position 17) (peptide)
peptide: FTRAYDFETED
B7: WAPL array peptide from residue 70 (position 6) (peptide)
peptide: TGDPFGFDSDD
B8: WAPL peptide 447-462 (third FGF motif only) (peptide)
peptide: NYKIKYFGFDDLSESE
B9: WAPL residues 1-600 (domain or fragment)
chain: MTSRFGKTYSRKGGNGSSKFDEVFSNKRTTLSTKWGETTFMAKLGQKRPNFKPDIQEIPKKPKVEEESTGDPFGFDSDDESLPVSSKNLAQVKCSSYSESSEAAQLEEVTSVLEANSKISHVVVEDTVVSDKCFPLEDTLLGKEKSTNRIVEDDASISSCNKLITSDKVENFHEEHEKNSHHIHKNADDSTKKPNAETTVASEIKETNDTWNSQFGKRPESPSEISPIKGSVRTGLFEWDNDFEDIRSEDCILSLDSDPLLEMKDDDFKNRLENLNEAIEEDIVQSVLRPTNCRTYCRANKTKSSQGASNFDKLMDGTSQALAKANSESSKDGLNQAKKGGVSCGTSFRGTVGRTRDYTVLHPSCLSVCNVTIQDTMERSMDEFTASTPADLGEAGRLRKKADIATSKTTTRFRPSNTKSKKDVKLEFFGFEDHETGGDEGGSGSSNYKIKYFGFDDLSESEDDEDDDCQVERKTSKKRTKTAPSPSLQPPPESNDNSQDSQSGTNNAENLDFTEDLPGVPESVKKPINKQGDKSKENTRKIFSGPKRSPTKAVYNARHWNHPDSEELPGPPVVKPQSVTVRLSSKEPNQKDDGVFKAPA

Assays:
[1] = molecular target: T1, SA2-SCC1 complex (SA2 80-1060 in …); assay: peptide or protein array
[2] = molecular target: T1, SA2-SCC1 complex (SA2 80-1060 in …); assay: ITC
[3] = molecular target: T1, SA2-SCC1 complex (SA2 80-1060 in …); assay: pull-down

Row | Binder | Kd [1] | other results
1 | B1 | 1.6 µM | 
2 | B2 | 2.17 µM | 
3 | B3 | 6.71 µM | 
4 | B4 | 12.4 µM | 
5 | B5 | 10.7 µM | 
6 | B6 | 1.96 µM | 
7 | B7 | 5.9 µM | 
8 | B8 |  | Kd [2]: 78.7 µM; dH [2]: -28.5 kJ/mol; stoichiometry N [2]: 1
9 | B9 |  | binding result [3]: binds
